This is an account of results in patent US20240390418A1 (MINERVA BIOTECHNOLOGIES, published 2024).

To fix the notation:
T1: NME7AB (Homo sapiens (Human), UniProt Q9Y5B8 92-376)
T1 construct: NME7A in the text appears to be NME7AB; also called NM23-H7; NME7A
T1 sequence: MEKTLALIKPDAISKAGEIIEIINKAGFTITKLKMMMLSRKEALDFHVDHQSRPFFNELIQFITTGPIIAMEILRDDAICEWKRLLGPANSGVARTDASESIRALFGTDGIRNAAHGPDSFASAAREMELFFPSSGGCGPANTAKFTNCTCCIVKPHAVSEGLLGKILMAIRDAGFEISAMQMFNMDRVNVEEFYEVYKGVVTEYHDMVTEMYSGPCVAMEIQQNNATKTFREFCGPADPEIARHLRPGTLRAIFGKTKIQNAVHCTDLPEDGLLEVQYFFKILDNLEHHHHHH

T2: MUC1* expressed on HCT-116 cells transfected with MUC1* (extra cellular domain is just the PSMGFR sequence) (Homo sapiens (Human), UniProt P15941 1110-1255)
T2 construct: In Western blot rows the same protein stood denatured in cell lysate; also called HCT-MUC1*; HCT-FLR
T2 sequence: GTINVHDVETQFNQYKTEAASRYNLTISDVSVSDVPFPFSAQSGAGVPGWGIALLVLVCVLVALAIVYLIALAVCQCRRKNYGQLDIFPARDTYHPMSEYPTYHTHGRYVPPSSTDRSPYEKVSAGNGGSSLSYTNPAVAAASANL

T3: PSMGFR peptide
T3 construct: also called MUC1* peptide
T3 peptide: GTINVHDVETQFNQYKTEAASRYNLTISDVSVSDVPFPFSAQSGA

T4: N+20/C-27 peptide
T4 peptide: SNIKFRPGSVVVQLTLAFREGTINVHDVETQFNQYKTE

T5: N+9/C-9 peptide
T5 peptide: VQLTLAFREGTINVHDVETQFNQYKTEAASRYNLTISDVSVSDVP

T6: N-10 peptide
T6 construct: also called PSMGFR N-10; PSMGFR minus 10 amino acids from the N-terminus
T6 peptide: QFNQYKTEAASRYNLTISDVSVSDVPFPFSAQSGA

T7: N-19 peptide
T7 peptide: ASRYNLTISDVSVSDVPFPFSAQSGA

T8: N-26 peptide
T8 peptide: ISDVSVSDVPFPFSAQSGA

T9: N-30 peptide
T9 peptide: SVSDVPFPFSAQSGA

T10: N-10/C-5 peptide
T10 peptide: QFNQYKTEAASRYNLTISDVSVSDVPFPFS

T11: N-19/C-5 peptide
T11 peptide: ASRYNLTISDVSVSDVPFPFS

B1: C-10 peptide (peptide)
peptide: GTINVHDVETQFNQYKTEAASRYNLTISDVSVSDV
notes: also called PSMGFR C-10; PSMGFR minus 10 amino acids from the C-terminus
B2: mouse monoclonal antibody MNE6 (antibody, V domains shown)
VH: EVKVVESGGDLVKPGGSLKLSCVVSGFTFSRYGMSWVRQTPGKRLEWVATISGGGTYIYYPDSVKGRFTISRDNAKNTLYLQMSSLKSEDTAMYHCTRDNYGRNYDYGMDYWGQGTSVTVSS
VL: QIVLTQSPAIMSASPGEEVTLTCSATSSVSYIHWFQQRPGTSPKLWIYSTSNLASGVPVRFSGSGYGTSYSLTISRMEAEDAATYYCQQRSSSPFTFGSGTKLEIK
notes: Mouse monoclonal raised against the PSMGFR peptide; also called Min-E6
B3: monoclonal antibody 8A9 (antibody, V domains shown)
VH: EVELVESGGGLVQPGGSLRLSCATSGFTFTDHYMSWVRQPPGKALEWLGFIRNKANGYTTEYSASVKGRFTISRDNSQSILYLQMKTLRTEDSATYYCARPSDWDSWFAYWGQGTLVTVSA
VL: DVLMTQTPLSLPVSLGDQASISCRSSQSIVHSNGNTYLDWYLQKPGQSPKLLIYRVSNRFSGVPDRFSGSGSGTDFTLKISRVEAEDLGLYYCFQGSHVPWAFGGGTKLEIK
notes: Raised against the N+9/C-9 peptide; also called N+9/C-9 antibody 8A9

The target in one test is T1, NME7AB. Briefly: ELISA, peptide on plate (FIG. 2A). As for the experimental part: (§1) FIGS. 2A-2I show results of ELISA assays. MUC1* peptides PSMGFR, PSMGFR minus 10 amino acids from the N-terminus aka N-10, or PSMGFR minus 10 amino acids from the C-terminus, aka C-10 are immobilized on the plate and the following are assayed for binding: NME7-AB (FIG. 2A), MNC2 monoclonal antibody (FIG. 2B), MNE6 monoclonal antibody (FIG. 2C), or dimeric NME1 (FIG. 2D). […] MUC1* peptides PSMGFR minus 10 amino acids from the N-terminus aka N-10, or PSMGFR minus 10 amino acids from the C-terminus, aka C-10, are immobilized on the plate and the following are assayed for binding: MNC3 (FIG. 2E) and MNC8 (FIG. 2F).
(In general: In an ELISA, binding on a coated surface is turned into a signal by an enzyme label.)

For the next test, the target named is T12, dimeric NME1 (Homo sapiens (Human), UniProt P15531 1-152, limits assumed).
T12 construct: also called NM23-H1 dimers; dimeric NM23-H1
Briefly: ELISA, peptide on plate (FIG. 2D). As for the experimental part: as §1

Test [1] addresses B1. Briefly: peptide ELISA.
Test [2] has as its target T2, MUC1* expressed on HCT-116 cells …. Briefly: flow cytometry (FIG. 4D-4F). On the technique in general: Flow cytometry measures light scatter and fluorescence of single cells or particles in a stream.
Test [3] deals with T3, PSMGFR peptide. Briefly: ELISA, peptide on plate (FIG. 2C).
Test [4] has as its target T4, N+20/C-27 peptide. In words: ELISA, peptide on plate (FIG. 63). As for the experimental part: (§2) ELISA assays were performed to determine if, in addition to recognizing their immunizing peptide, they recognized PSMGFR, N-10 or C-10. In addition, they were tested for their ability to bind to N+20/C-27, N+9/C-9. We first did the ELISA assay on our set of reference antibodies, MNC2, MNE6, which we know are cancer-specific plus MNC3, which we know recognizes stem cells and progenitor cells (FIG. 63A-63B). None of the reference antibodies bound to the N+20/C-27 peptide. MNC2 and MNE6 cannot bind to PSMGFR peptides with 27, 10 or 9 C-terminal deletions, however, MNC3 binds to C-10 and to N+9/C-9 peptides.

Test [5] deals with T5, N+9/C-9 peptide. Briefly: ELISA, peptide on plate (FIG. 63). As for the experimental part:
as §2

Test [6] concerns the target T6, N-10 peptide. In words: ELISA, peptide on plate (FIG. 2B-2C).
The target in test [7] is T3, PSMGFR peptide. Briefly: ELISA, peptide on plate.
In test [8] the target is T4, N+20/C-27 peptide. Briefly: ELISA, peptide on plate (FIG. 66).
For test [9], the target named is T5, N+9/C-9 peptide. In words: ELISA, peptide on plate (FIG. 66).
For test [10], the target named is T6, N-10 peptide. In words: ELISA, peptide on plate (FIG. 69).
Test [11] concerns the target B1. Briefly: ELISA, peptide on plate (FIG. 69).
For another test, the target named is T7, N-19 peptide. In words: ELISA, peptide on plate (FIG. 69).
The target of the next test is T8, N-26 peptide. Briefly: ELISA, peptide on plate (FIG. 69).
Another test concerns the target T9, N-30 peptide. Briefly: ELISA, peptide on plate (FIG. 69).
Another test has as its target T10, N-10/C-5 peptide. In words: ELISA, peptide on plate (FIG. 69).
The target of another test is T11, N-19/C-5 peptide. In words: ELISA, peptide on plate (FIG. 69).
The target of test [12] is T2, MUC1* expressed on HCT-116 cells …. Briefly: denaturing Western blot of cell lysates, linear epitope test (FIG. 74). As for the experimental part: Antibodies were tested to determine whether they recognize a linear or a conformational epitope. Only antibodies that recognize a linear epitope work in Western blots when using denaturing gels. […] The antibodies tested for comparison are MNC2 and MNE6, which were known to only recognize a conformational epitope, SDIX which is a polyclonal antibody raised against PSMGFR and VU4H5, which is a commercially available monoclonal antibody that recognizes the tandem repeats of full-length MUC1 (FIG. 71A-71D). […] The SDIX polyclonal antibody recognizes HCT-MUC1* but not full-length MUC1 and VU4H5 only recognizes full-length MUC1. These same antibodies were also tested for their ability to work in Western blots of two breast cancer cell lines 1500, aka Zr-75-1, and T47D cells and show the same binding pattern (FIG. 71E-71H).
Antibodies that were raised against the PSMGFR peptide were tested the same way in Western blots (FIG. 72A-72P). […] Antibodies that were raised against the N+20/C-27 peptide were tested the same way in Western blots (FIG. 73A-73J). […] Antibodies 1E4 and 45C11 may recognize a conformational epitope. Antibodies that were raised against the N+9/C-9 peptide were tested the same way in Western blots (FIG. 74A-74H). […] These antibodies may recognize a conformational epitope.
On the technique in general: A western blot detects proteins with antibodies after separation by electrophoresis.

T12 sequence (P15531 whole entry): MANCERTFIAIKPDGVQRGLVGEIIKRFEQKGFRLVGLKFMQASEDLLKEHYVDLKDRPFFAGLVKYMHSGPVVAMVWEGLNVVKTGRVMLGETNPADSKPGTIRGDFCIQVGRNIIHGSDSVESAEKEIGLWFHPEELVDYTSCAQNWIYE

Consider B1, for which the binding result with NME7AB and with dimeric NME1 was “no binding” throughout.
As to B2, the binding result is on record as “no binding” with C-10 peptide [1]; “binds” in test [2]; “binds” with PSMGFR peptide [3]; “no binding” in the test with N+20/C-27 peptide [4]; “no binding (tested: 10 ug/mL or 1 ug/mL)” with N+9/C-9 peptide [5]; “binds” in the test with N-10 peptide [6].
For B3, the binding result is on record as “no binding” with PSMGFR peptide [7]; “no binding” in the test with N+20/C-27 peptide [8]; “binds” with N+9/C-9 peptide [9]; “no binding” with N-10 peptide [10]; “no binding” with C-10 peptide [11]; “no binding” with N-19 peptide. In addition, the binding result (with N-26 peptide; with N-30 peptide; in the test with N-10/C-5 peptide; with N-19/C-5 peptide; in [12]) was “no binding” each time.
